The record followed here is patent publication US20240360226A1 (AstraZeneca / MedImmune, published 2024).

The target in one assay is T1, HER3 (Homo sapiens (Human), UniProt P21860 20-643).
T1 construct: also called EGFR HER family protein HER3
The experiment in a line: ELISA, antigen coated at 1 ug/mL, anti-human Fab-HRP detection, A450.

For assay [1], the target named is T2, Human EGFR (recombinant, soluble monomeric) (human, UniProt P00533 25-645).
T2 construct: also called EGFR antigen; recombinant human EGFR
The experiment in a line: biolayer interferometry (Octet), antibody bound to cMET captured on NI-NTA sensors, then human EGFR. Background: Biolayer interferometry detects binding as a change in optical thickness at a sensor tip.

In assay [2] the target is T3, Cynomolgus monkey cMET (recombinant, soluble monomeric) (cynomolgus monkey, UniProt A0M8R7 25-932 (Papio anubis entry)).
T3 construct: also called cyno c-Met
The experiment in a line: SPR (Biacore T200), antibody captured on anti-human IgG, soluble monomeric antigen as analyte, 25 C. How it is done:
(§1) Mouse anti-human IgG was immobilized on a CM4 sensor chip with a final surface density of ˜2000 resonance units (RUs). A reference flow cell surface was also prepared on this sensor chip using identical immobilization protocol. Test and control article antibodies were prepared at 5-20 nM in instrument buffer (HBS-EP buffer; 0.01M HEPES, pH 7.4, 0.15M NaCl, 3 mM EDTA, and 0.005% P-20), along with 3-fold serial dilutions of purified EGFR (0.27-200 nM human, 0.4-900 nM cyno, and 4-1000 nM murine) or cMET proteins (0.27 to 66 nM human and 0.27-22 nM cyno) in instrument buffer. A sequential approach was utilized for kinetic measurements. Antibodies were first injected over the capture surface, at a flow rate of 10 μL/minute. Once the binding of the captured antibody stabilized, a single concentration of the analyte was injected over both capture and reference surfaces, at a flow rate of 75 μL/minute. The resulting binding response curves yielded the association phase data. Following the injection of analyte, the flow was then switched back to instrument buffer for 15 minutes to permit the collection of dissociation phase data, followed by a 1-minute pulse of 10 mM glycine, pH 1.5, to regenerate the antibody-captured surface on the chip. Binding responses against test and control article antibodies were recorded from duplicate injections of each concentration of analyte. In addition, several buffer injections were interspersed throughout the injection series. Select buffer injections were used along with the reference cell responses to correct the raw data sets for injection artifacts and/or nonspecific binding interactions, commonly referred to as “double referencing”. Corrected binding data were globally fit to a 1:1 binding model (Biacore T200 Evaluation software 2.0, GE Healthcare, Pittsburgh, PA).
(§2) Kinetic measurements to soluble monomeric forms of EGFR and cMET were performed using a BIACore instrument.
(In general: Surface plasmon resonance follows binding to a sensor surface in real time, without labels.)

The target of assay [3] is T4, Human cMET (recombinant, soluble monomeric) (human, UniProt P08581 25-932).
T4 construct: also called His-tagged cMET antigen
The description is as above. How it is done: as §1, §2

Assay [4] concerns the target T5, Cynomolgus monkey EGFR (recombinant, soluble monomeric) (cynomolgus monkey, UniProt P55245 25-645 (rhesus entry)).
T5 construct: also called cyno EGFR
The experiment in a line: ELISA, antigen coated at 1 ug/mL, anti-human Fab-HRP detection, A450. Here is the method: (§3) Specificity for EGFR and cMET species paralogs and closely related family members was determined by ELISA. Briefly, antigen solutions were prepared in PBS at 1 μg/mL and 50 microliters was coated onto half area ELISA assay plates. Plates were washed and blocked with 1% BSA in PBS containing 0.005% Tween-20 (PBS-T) for one hour at room temperature. […] Wells were incubated with 50 microliters of the indicated primary antibodies diluted in PBS-T in a 1:3 dilution series, starting at 10 μg/mL and ending at 0.002 ug/mL, except for the HER4 binding mAb control, MAB1131, for which the series started at 1 μg/mL. The wells were washed 4 times in PBS-T, then 50 μl of goat anti-human Fab HRP-labeled secondary antibody, diluted 1:5000 in PBS-T, was added to each well and incubated for one hour at room temperature. […] 50 microliters of TMB stop solution was added to all wells and the absorbance was read at 450 nm on a SpectraMax M5 microplate reader. Data were analyzed in the SoftMax Pro 5 software and plotted using GraphPad Prism 7 graphing software.
(§4) To determine the species cross reactivity, ELISA assays were carried out as described above.
(ELISA stands for enzyme-linked immunosorbent assay.)

The target in assay [5] is T6, Mouse EGFR (recombinant, soluble monomeric) (mouse, UniProt Q01279 25-647).
T6 construct: also called murine EGFR
The assay is described as above. How it is done: as §3, §4

Another assay has as its target Mouse cMET (recombinant) (mouse, UniProt P16056 25-931, limits assumed). The assay is described as above. Here is the method:
as §3, §4

A further assay concerns the target T7, HER4 (Homo sapiens (Human), UniProt Q15303 26-651).
T7 construct: also called EGFR HER family protein HER4
T7 sequence: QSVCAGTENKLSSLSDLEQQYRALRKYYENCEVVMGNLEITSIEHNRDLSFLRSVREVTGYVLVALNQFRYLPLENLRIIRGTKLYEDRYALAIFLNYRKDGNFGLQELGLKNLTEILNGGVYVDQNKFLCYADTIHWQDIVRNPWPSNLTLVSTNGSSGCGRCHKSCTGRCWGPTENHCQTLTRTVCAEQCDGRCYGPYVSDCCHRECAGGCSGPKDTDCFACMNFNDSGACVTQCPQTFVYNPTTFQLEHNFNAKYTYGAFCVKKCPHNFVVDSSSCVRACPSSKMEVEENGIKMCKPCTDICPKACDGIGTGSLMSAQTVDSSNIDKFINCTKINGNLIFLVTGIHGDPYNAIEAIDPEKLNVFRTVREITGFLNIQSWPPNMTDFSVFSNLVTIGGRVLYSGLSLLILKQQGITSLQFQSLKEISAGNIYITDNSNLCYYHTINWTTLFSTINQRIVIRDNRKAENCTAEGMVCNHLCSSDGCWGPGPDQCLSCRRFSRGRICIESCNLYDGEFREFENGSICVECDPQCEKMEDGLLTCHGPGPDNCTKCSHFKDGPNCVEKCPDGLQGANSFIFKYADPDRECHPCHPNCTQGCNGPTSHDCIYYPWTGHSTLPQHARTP
The description is as above.

For a further assay, the target named is T8, HER2 (Homo sapiens (Human), UniProt P04626 23-652).
T8 construct: also called EGFR HER family protein HER2
The assay is described as above.

In general, Kd refers to the concentration at which binding is half-saturated. Broadly, the koff is the rate constant with which the complex falls apart. By kon is commonly meant the second-order rate constant of association.

T4 sequence (P08581 25-932): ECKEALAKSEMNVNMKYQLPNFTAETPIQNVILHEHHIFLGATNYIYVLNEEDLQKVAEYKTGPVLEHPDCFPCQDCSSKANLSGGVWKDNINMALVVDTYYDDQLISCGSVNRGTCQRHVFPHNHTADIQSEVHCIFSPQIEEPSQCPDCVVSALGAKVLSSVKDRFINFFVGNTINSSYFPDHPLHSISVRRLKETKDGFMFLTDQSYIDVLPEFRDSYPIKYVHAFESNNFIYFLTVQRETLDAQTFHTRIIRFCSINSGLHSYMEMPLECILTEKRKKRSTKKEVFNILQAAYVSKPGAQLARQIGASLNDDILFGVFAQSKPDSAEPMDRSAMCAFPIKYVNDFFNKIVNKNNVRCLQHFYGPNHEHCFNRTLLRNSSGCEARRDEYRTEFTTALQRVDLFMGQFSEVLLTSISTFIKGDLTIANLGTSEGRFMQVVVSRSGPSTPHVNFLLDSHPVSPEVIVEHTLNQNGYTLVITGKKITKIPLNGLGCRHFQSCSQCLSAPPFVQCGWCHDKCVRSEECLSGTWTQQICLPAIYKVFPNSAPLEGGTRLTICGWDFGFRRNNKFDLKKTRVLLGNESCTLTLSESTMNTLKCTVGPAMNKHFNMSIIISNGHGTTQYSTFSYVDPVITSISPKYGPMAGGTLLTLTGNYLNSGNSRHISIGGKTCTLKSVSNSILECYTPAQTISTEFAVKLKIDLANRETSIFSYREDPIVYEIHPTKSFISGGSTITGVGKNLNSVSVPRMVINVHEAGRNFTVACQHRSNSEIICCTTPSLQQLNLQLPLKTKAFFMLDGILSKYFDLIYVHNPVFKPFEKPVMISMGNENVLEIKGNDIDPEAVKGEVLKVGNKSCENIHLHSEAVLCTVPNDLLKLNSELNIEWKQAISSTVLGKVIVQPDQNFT
T3 sequence (A0M8R7 25-932 S170N/I621T): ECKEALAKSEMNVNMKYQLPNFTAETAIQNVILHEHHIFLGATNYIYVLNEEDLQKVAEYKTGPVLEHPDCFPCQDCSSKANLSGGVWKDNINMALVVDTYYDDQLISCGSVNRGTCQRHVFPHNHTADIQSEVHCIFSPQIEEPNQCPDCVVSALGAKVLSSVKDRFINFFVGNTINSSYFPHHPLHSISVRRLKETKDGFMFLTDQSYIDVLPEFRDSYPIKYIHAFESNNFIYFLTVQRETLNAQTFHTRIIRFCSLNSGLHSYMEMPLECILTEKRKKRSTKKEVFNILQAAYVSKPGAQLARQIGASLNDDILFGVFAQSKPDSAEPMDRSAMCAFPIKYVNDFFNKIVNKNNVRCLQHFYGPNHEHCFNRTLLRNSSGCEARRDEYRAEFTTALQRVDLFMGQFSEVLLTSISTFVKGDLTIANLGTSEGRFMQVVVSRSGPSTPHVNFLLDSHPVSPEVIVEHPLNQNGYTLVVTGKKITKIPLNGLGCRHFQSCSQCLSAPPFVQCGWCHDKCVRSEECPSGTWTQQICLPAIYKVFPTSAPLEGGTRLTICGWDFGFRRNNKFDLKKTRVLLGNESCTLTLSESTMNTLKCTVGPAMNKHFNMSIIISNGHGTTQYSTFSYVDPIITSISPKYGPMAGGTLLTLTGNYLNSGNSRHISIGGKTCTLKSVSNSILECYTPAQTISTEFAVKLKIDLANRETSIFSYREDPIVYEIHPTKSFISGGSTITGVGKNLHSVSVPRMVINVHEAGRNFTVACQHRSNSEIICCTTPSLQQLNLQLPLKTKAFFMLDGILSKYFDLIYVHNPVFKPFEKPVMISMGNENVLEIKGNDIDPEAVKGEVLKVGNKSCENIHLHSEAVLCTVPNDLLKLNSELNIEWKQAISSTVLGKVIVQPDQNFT
Chain of Mouse cMET (recombinant) (P16056 25-931 limits assumed): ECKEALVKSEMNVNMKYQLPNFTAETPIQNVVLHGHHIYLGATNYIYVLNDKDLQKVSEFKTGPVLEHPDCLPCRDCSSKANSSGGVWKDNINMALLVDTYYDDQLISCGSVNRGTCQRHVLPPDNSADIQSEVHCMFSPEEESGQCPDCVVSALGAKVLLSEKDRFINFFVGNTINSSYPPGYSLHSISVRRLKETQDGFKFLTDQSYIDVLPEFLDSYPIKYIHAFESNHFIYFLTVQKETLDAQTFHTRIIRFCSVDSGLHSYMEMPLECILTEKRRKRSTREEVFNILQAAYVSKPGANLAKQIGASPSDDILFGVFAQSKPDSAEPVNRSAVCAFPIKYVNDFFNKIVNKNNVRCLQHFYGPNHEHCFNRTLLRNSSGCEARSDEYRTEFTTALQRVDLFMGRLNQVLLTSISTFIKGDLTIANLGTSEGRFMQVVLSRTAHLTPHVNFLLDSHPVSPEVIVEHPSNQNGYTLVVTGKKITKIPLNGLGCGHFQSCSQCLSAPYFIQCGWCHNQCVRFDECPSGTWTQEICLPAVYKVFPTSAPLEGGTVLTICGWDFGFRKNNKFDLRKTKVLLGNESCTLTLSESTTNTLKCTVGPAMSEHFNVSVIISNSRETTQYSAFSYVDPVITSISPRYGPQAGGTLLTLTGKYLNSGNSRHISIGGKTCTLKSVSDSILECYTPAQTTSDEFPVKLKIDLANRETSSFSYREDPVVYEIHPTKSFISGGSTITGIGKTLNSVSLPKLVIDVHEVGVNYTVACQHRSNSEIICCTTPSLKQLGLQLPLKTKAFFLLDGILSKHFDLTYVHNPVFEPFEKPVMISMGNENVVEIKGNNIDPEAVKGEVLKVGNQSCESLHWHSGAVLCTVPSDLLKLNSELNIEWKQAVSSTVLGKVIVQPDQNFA

B1: B09-57 IgG (antibody, V domains shown)
VH: QVQLVQSGAEVKKPGASVKVSCKASGYTFTDYYIHWVRQATGQGLEWMGWMNPNSGNTGYAQKFQGRVTMTRDTSISTAYMELSSLRSEDTAVYYCARGQGYTHSWGQGTMVTVSS
VL: DIQMTQSPSTLSASVGDRVTITCRASEGIYHWLAWYQQKPGKAPKLLIYKASSLASGVPSRFSGSGSGTEFTLTISSLQPDDFATYYCQQYSNYPPTFGGGTKLEIK
notes: also called B09-GL; anti-c-Met antibody clone B09-GL
Turning to B1, the binding result in the assay with HER3 was “no binding (tested: 10 ug/ml)”; in assay [1], “no binding (tested: 500 nM EGFR)”; in [4], “no binding (tested: 10 ug/ml)”; in assay [5], “no binding (tested: 10 ug/ml)”; with Mouse cMET (recombinant), “no binding (tested: 10 ug/ml)”; with HER4, “no binding (tested: 10 ug/ml)”. In addition, the binding result with HER2 is reported as “no binding (tested: 10 ug/ml)”. The equilibrium dissociation constant (Kd) was found to be 1.9 nM in [2] and 1.6 nM in assay [3]. In addition, the dissociation rate constant (koff) in [2] was found to be 0.00194 s⁻¹; in [3], 0.000882 s⁻¹. In addition, the kon was 1.04e+06 M⁻¹ s⁻¹ in assay [2] and 563000 M⁻¹ s⁻¹ in assay [3].
